Assay results reported in US20040072207.

System: raptor (Regulatory Associated Protein of mTOR), endogenous human protein

## mTOR (mammalian target of rapamycin), endogenous protein of human cell lines
  in vitro kinase activity of mTOR towards S6K1 (32P incorporation into GST-S6K1): the in vitro kinase activity of mTOR towards S6K1 inversely correlated with the amount of raptor recovered with mTOR
